Consider five molecules from patent publication US20200262928A1 (GREEN CROSS, published 2020).

Residue numbers refer to the chain shown, from its start.

Test [1] addresses human MSLN expressed on cancer cell surface (human) (UniProt Q13421). Put plainly: flow cytometry on H226 cells expressing MSLN, control antibody, PE-conjugated anti-human IgG detection. For orientation: A flow cytometer gives signals particle by particle.
Test [2] shares this target. As to the kind of experiment: flow cytometry on PL45 cells expressing MSLN, control antibody, PE-conjugated anti-human IgG detection.
For test [3] the target is unchanged. As to the kind of experiment: flow cytometry on AsPC1 cells expressing MSLN, control antibody, PE-conjugated anti-human IgG detection.
The target is the same in test [4]. As to the kind of experiment: flow cytometry on Capan2 cells expressing MSLN, control antibody, PE-conjugated anti-human IgG detection.
Test [5] has as its target T1, recombinant human MSLN (human, UniProt Q13421 296-580, limits assumed).
T1 construct: It was fixed to an anti-Penta His (HIS1K) sensor, so a His tag is implied; also called recombinant MSLN; mesothelin
Put plainly: BLI (Octet), MSLN on anti-Penta His sensor, antibody 3.125-50 nM. As to the method: Specifically, recombinant human MSLN was prepared at a concentration of 5 μg/ml in 1× kinetic buffer and used to treat a 96-well-plate at 200 μl/well. The MSLN after treatment was fixed to the anti-Penta His (HIS1K, Cat #18-5121, Fortebio) sensor.
Then, the 3 humanized anti-MSLN antibodies produced in accordance with Example 1 and the mouse human chimeric MI323 IgG1 clones were diluted to a concentration of 50, 25, 12.5, 6.25, or 3.125 nM in 1× kinetic buffer, and treatment therewith was performed at 200 μl/well. For the 1×kinetic buffer, one obtained by 10-fold dilution of 10×kinetic buffer (ForteBio, Cat #18-1092) with PBS was used.
The interaction between the MSLN fixed to the sensor and the antibody at several concentrations was analyzed to calculate antigen-antibody affinity, and the results are shown in Table 4 below.
(In general: BLI is a label-free optical method that tracks binding on a fibre tip over time.)

Chain of human MSLN expressed on cancer cell surface (human) (Q13421 other isoform, or with tags, fused parts or gaps limits assumed): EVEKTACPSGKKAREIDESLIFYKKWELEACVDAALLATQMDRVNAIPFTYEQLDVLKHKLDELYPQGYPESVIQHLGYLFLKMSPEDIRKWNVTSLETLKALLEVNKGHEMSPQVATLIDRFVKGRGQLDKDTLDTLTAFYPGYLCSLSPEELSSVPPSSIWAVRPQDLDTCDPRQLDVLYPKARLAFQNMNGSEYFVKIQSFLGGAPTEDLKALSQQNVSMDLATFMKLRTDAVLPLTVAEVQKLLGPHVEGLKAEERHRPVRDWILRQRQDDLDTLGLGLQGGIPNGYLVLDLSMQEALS
T1 sequence (Q13421 other isoform, or with tags, fused parts or gaps limits assumed): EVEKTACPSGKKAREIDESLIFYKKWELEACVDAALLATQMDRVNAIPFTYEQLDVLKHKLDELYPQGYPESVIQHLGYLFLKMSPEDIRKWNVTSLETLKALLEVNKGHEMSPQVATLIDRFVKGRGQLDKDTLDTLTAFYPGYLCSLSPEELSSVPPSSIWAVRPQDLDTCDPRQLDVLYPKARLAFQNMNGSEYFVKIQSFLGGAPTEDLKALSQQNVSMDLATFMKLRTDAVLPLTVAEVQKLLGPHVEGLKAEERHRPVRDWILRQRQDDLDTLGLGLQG

hIgG (antibody): the MFI in test [1] turned out to be 120; in test [2] it was 96.5; in test [3], 85.9; in test [4], 169.

B1: mouse/human chimeric MI323 IgG1 (antibody, V domains shown)
VH: EVQLQQSGPELVKPGTSVKISCKASGYSFTSYFIQWVKQRPGQGLEWIGWIFPGSGNTKYNEMFKGKATLAADTSSSTAYMQLSSLTSEDSAVYFCARSGGYQYYFDYWGQGTSVTVSS
VL: DIVMTQSHKFMSTSVGDRVSITCKASQDVSTAVAWYQQKPGQSPKLLIYSASYRYPGVPDRFTGSGSGTDFTFTISSVQAEDLALYYCQQHYSTPWTFGGGTKLEIKR
notes: Control antibody; also called mouse human chimeric MI323 IgG1 antibody; MI323 antibody
On to B1, for which, in test [5], the dissociation constant (Kd) (usually the constant that tells how readily two partners part at equilibrium) turned out to be 0.0286 nM; the koff (in general, the first-order rate constant of dissociation) was determined as 1.3e-05 s⁻¹; the kon (commonly the second-order rate constant of association) was determined as 454000 M⁻¹ s⁻¹.

B2: HMI323VL-1/HMI323VH-3 IgG1 (antibody, V domains shown)
VH: EVQLVQSGAEVKKPGTSVKVSCKASGYSFTSYFIQWVRQAPGQGLEWIGWIFPGSGNTKYSQKFQGRVTITRDTSTSTAYMELSSLRSEDTAVYYCARSGGYQYYFDYWGQGTLVTVSS
VL: DIQMTQSPSSLSASVGDRVTITCRASQDVSTAVAWYQQKPGKAPKLLIYSASYRYPGVPSRFSGSGSGTDFTLTISSLQPEDFATYYCQQHYSTPWTFGGGTKLEIKR
notes: also called humanized MI323 IgG1
As to B2, in test [5], the Kd came out at 0.0327 nM, the koff amounted to 2.75e-05 s⁻¹ and the kon was 842000 M⁻¹ s⁻¹.

B3: HMI323VL-1/HMI323VH-1 (antibody, human IgG1, kappa, V domains shown)
VH: B2 VH with E1Q, T16A, I34M, Q35H, G44R, I48M, S55N, T76A
VL: B2 VL
notes: also called humanized MI323 IgG1 (VL-1/VH-1)
As to B3, in test [5], the dissociation constant (Kd) was 0.139 nM, the koff was found to be 9.25e-05 s⁻¹ and the on-rate (kon) amounted to 665000 M⁻¹ s⁻¹.

B4: HMI323VL-1/HMI323VH-2 (antibody, human IgG1, kappa, V domains shown)
VH: B2 VH with E1Q, T16S, Q35S, I48M, W50G, T58A, K59N, S61A, R72A, T74E
VL: B2 VL
notes: also called humanized MI323 IgG1 (VL-1/VH-2)
Regarding B4, in test [5], the Kd amounted to 0.273 nM, the koff is 0.000509 s⁻¹ and the kon is 1.86e+06 M⁻¹ s⁻¹.
